Numbering of substitutions follows the chain as printed. Names and notes keep the numbering of the source.

T1: MIA protein dimer (Homo sapiens, UniProt Q16674)
T1 construct: made in house; host or cells: cell-free Rapid Translation System RTS 500 E. coli HY Disulfite Kit (Roche)
T1 sequence (Q16674 25-131): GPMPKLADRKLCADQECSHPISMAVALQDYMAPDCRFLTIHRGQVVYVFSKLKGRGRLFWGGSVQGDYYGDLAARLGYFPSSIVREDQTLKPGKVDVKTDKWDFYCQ

B1: peptide AR71 (Ac-FHWRYPLPLPGQ-NH2) (peptide)
peptide: Ac-FHWRYPLPLPGQ-NH2
notes: Dodecapeptide previously identified by phage display
B2: melanoma inhibitory activity (MIA) protein, recombinant human wild type (other)
chain: T1 sequence (Q16674 25-131)
notes: In the HTFP assay one copy is labelled with Ru(bpy)3 (in solution) and the other is a biotin conjugate immobilised on streptavidin plates; 15N-enriched MIA was used for NMR; also called wt MIA; MIA wt (RTS)
B3: MIA mutant G61R (other)
chain: T1 sequence (Q16674 25-131) with G61R
notes: Expressed in the RTS in vitro transcription/translation system, unpurified
B4: MIA mutant T89P (other)
chain: T1 sequence (Q16674 25-131) with T89P
notes: Expressed in the RTS in vitro transcription/translation system
B5: MIA mutant K91N (other)
chain: T1 sequence (Q16674 25-131) with K91N
notes: as for B4
B6: MIA mutant V46F/S81P (other)
chain: T1 sequence (Q16674 25-131) with V46F, S81P
notes: as for B4
B7: MIA mutant D29G/Y69H (other)
chain: T1 sequence (Q16674 25-131) with D29G, Y69H
notes: as for B4

Data set [1] relates to hMSC. The data set is described as follows: Hanging drop assay (chondrogenic differentiation). As to conditions: after day 4 (FIG. 9). The class given is cell-based, human. The protocol: To generate spheroids the hMSC were detached from the culture flask by adding 1 ml Trypsin-EDTA (Provitro). After incubation for a 5 minutes 1 ml neutralizing solution (Provitro) and 8 ml HMSC proliferation medium were added. After centrifugation for 4 min at 1200 rpm and resuspension in Incomplete Chondrogenesis Induction Medium (DMEM with glucose (4.5 g/L), penicillin (400 units/ml) streptomycin (50 μg/ml), L-glutamine (300 μg/ml), sodium pyruvate (1 mM), L-ascorbic acid 2-phosphate (0.17 mM), L-proline ([…]), dexamethasone (1 μM) and ITS premix (BD Biosciences, Heidelberg, Germany)), the cells were counted and adjusted to 50,000 cells/ml. 20% methocel (6 g methyl cellulose (Sigma-Aldrich, Munich, Germany), 250 ml basal medium)) was added and 25 μl of the cells suspension were dropped onto the cover of a 9 mm petri dish. For each experimental condition 10 drops were used. The petri dish was filled with PBS and the cover dish was inverted and incubated for 72 h under a humidified atmosphere of 8% CO2 at 37° C. for 1, 2, 4 and 7 d followed by RNA isolation or alcian blue staining. For treatment, TGF-beta3 (10 ng/ml, Biomol, Hamburg, Germany) was added. At day 4 NA was extracted and analysed. The experiment was repeated 4 times.

Data set [2] has as its target T1, MIA protein dimer. The data set is described as follows: Western blot analysis of MIA dimer bands. The class given is biochemical. Particulars: western blotting, FIG. 6. As for the experimental part:
(§1) Protein samples were denaturated at 70° C. for 10 min after addition of reducing and denaturing Roti-Load buffer (Roth, Karlsruhe, Germany) and subsequently separated on sodium dodecyl sulfate 12.75% polyacrylamid gels (SDS-PAGE) (Invitrogen, Groningen, The Netherlands). In the multimerization studies, MIA protein (1 μg) was incubated with AR71 (2.5 μg) overnight at RT before being treated as described above. After transferring the proteins onto a polyvinylidene fluoride (PVDF) membrane (BioRad, Richmond, Va., USA), the membrane was blocked using 3% BSA/PBS for 1 h at RT and incubated with a 1:150 dilution of primary polyclonal rabbit anti MIA antibody (Biogenes, Berlin, Germany) in 3% BSA/PBS overnight at 4° C. After washing in PBS the membrane was incubated with a 1:2000 dilution of an […] coupled secondary antibody (Chemikon, Hofheim, Germany) for 2 h at RT. Finally, after washing steps, immunoreactions were visualized by nitro blue tetrazolium/5-bromo-4-chloro-3-indolyl phosphate (NBT/BCIP) (Invitrogen, Karlsruhe, Germany) staining.
In general terms: A western blot detects proteins with antibodies after separation by electrophoresis.

Data set [3] concerns Sox9 mRNA in human MSC. The data set is described as follows: Micromass assay (chondrogenic differentiation induced by TGFβ3). The format is cell-based. As to conditions: after days 3 and 7 (FIG. 8). As for the experimental part:
For analysis of chondrogenesis human MSC differentiation was performed in high density culture. For this, 3×10^5 cells were seeded into each well of a six-well plate. Cells were cultured for the indicated period in induction medium including DMEM (PAA), high glucose (Sigma), 20% fetal calf serum (FCS, PAN Biotech GmbH), MEM Vitamins (Invitrogen), penicillin (100 U/ml), streptomycin (10 μg/ml) (both Sigma), Amphotericin B (2.5 μg/ml) (PAN Biotech GmbH), 0.1 μM dexamethasone, 1 mM sodium pyruvate, 0.17 mM ascorbic acid-2-phosphate, 0.35 mM proline (all Sigma), insulin (5 μg/ml), transferring (5 μg), selenious acid (5 ng) (ITS Premix, Becton Dickinson) and 10 ng/ml human TGF-β3 (R&D Systems). The medium was changed every second day. All groups were done in triplicate. Each experiment was repeated three times. Analysis was performed on RNA level.

The subject of data set [4] is Mel Im melanoma cells. The data set is described as follows: Boyden chamber invasion assay (MIA activity). The class given is cell-based, human. Particulars: MIA pre-incubated with peptide, Mel Im cells (FIG. 7). As for the experimental part: Invasion assays were performed in Boyden Chambers containing polycarbonate filters with 8-μm pore size (Neuro Probe, Gaithersburg, Md., USA) essentially as described previously.^13 Filters were coated with matrigel, a commercially available reconstituted basement membrane (diluted 1:3 in H2O; BD Bioscience, Bradford, Mass., USA). The lower compartment was filled with fibroblast-conditioned medium used as a chemo attractant. Mel Im melanoma cells were harvested by trypsinization for 2 min at RT, resuspended in DMEM without FCS at a density 2.5×10^4 cells/mL, and placed in the upper compartment of the chamber. Except for the control experiment with untreated cells and experiments where cells were only treated with the respective peptide, MIA was added to the cell suspension at a final concentration of 200 ng/mL. Peptide AR71 (sequence: Ac-FHWRYPLPLPGQ-NH2) was used at a final concentration of 1 μM. MIA expressing murine B16 melanoma cells stably co-transfected with Sig-AR71-HisTag containing pCMX-PL1 vector^27 and an antibiotic resistance comprising plasmid (pCDNA3), and the respective mock control were also investigated for their ability to migrate. Therefore, cells were harvested by trypsinization for 2 min at RT, resuspended in DMEM without FCS at a density 2.5×10^4 cells/mL, and placed in the upper compartment of the chamber. After incubation at 37° C. for 4 h filters were removed. Cells adhering to the lower surface of the filter were fixed, stained, and counted. Experiments were carried out in triplicates and repeated at least three times.

For data set [5], the target named is B2. The data set is described as follows: HTFP competition assay: displacement of MIA-Ru(bpy)3 from immobilised MIA-biotin. As for the experimental part: (§2) In the control lanes the FP signal of MIA-Ru(bpy)₃ was measured in a well coated with MIA-biotin compared to an uncoated well. The significant increase in FP in the well coated with MIA-biotin indicates binding of MIA-Ru(bpy)₃ to the immobilized MIA-biotin. The binding of MIA-inhibitory compound AR71 promotes dissociation of MIA dimers and displaces the surface-bound MIA-Ru(bpy)₃, as reflected by a decrease in fluorescence polarization signal. […] Pre-incubation of MIA with the respective inhibitory peptide results in a complete neutralization of the MIA effect.
(§3) All measurements were performed at RT on a Polarstar Optima microplate reader (BMG Labtech, Offenburg, Germany). A 390-10 nm bandpass filter was used for excitation while a 520 nm longpass filter was used for the emission light. Even though the extinction coefficient is higher at longer wavelengths, the inventors chose a shorter excitation wavelength as this led to higher polarization values. MIA-Ru(bpy)₃ was prepared and tested for functional activity as described previously.¹⁴ A MIA-Ru(bpy)₃ concentration of 55 fM was used in all experiments. […] All measurements were performed in DPBS without calcium or magnesium (PAN Biotech GmbH, Aidenbach, Germany).

Data set [6] deals with B2. The data set is described as follows: HTFP competition assay.
Data set [7] concerns the molecule itself. The data set is described as follows: HTFP assay: MIA-Ru(bpy)3 on immobilised MIA-biotin, increase in FP signal. The protocol:
as §2, §3

Data set [8] concerns the molecule itself. The data set is described as follows: Western blot for dimer band, RTS-expressed mutant. As for the experimental part: as §1, with “In” for “Protein samples were denaturated at 70° C. for 10 min after addition of reducing and denaturing Roti-Load buffer (Roth, Karlsruhe, Germany) and subsequently separated on sodium dodecyl sulfate 12.75% polyacrylamid gels (SDS-PAGE) (Invitrogen, Groningen, The Netherlands). In”
(§4) Having identified the most likely positions of the dimerization interfaces, mutants of MIA were tested for their capability to form dimers by Western blot analysis (FIG. 1B). MIA mutants were expressed in an in vitro transcription/translation system. […] The sites of mutations not affecting functional activity (FIG. 1D, depicted by amino acid labels D29, S81 etc.) are located outside the dimerization regions, whereas G61R (FIG. 1D, depicted by G61) is buried in the dimerization cleft (depicted by the darker grey are in the left panel) in close proximity to the distal loop.

Data set [9] concerns the molecule itself. The data set is described as follows: Western blot, dimer band (FIG. 1B legend). As for the experimental part: as §1, with “In” for “Protein samples were denaturated at 70° C. for 10 min after addition of reducing and denaturing Roti-Load buffer (Roth, Karlsruhe, Germany) and subsequently separated on sodium dodecyl sulfate 12.75% polyacrylamid gels (SDS-PAGE) (Invitrogen, Groningen, The Netherlands). In”
as §4

As to “FHWH (Peptide Sequence identified from HTFP assay screening) [JPT55]”, in data set [1], the “induction of Aggrecan during differentiation” value is recorded as “inhibit the induction”, the “induction of Sox9 during differentiation” value was “inhibit the induction” and the “induction of collagen type II during differentiation” value is “inhibit the induction”.

In the case of “FHWRYPDPDPGQ (Peptide Sequence identified from HTFP assay screening) [JPT79]”, the “inhibition of dimerization of MIA” value in data set [2] is listed as “efficiently inhibited”.

Consider “HHH (Peptide Sequence identified from HTFP assay screening) [JPT71]”, for which the “induction of Sox9 mRNA by TGFβ3” value in data set [3] is reported as “inhibit the induction of Sox9 mRNA by TGFβ3 significantly”.

Regarding “WHF (Peptide Sequence identified from HTFP assay screening) [JPT67]”, the “inhibition of MIA-activity (neutralization of the MIA effect on invasion)” value in data set [4] is “inhibit MIA-activity”.

Regarding “WWW (Peptide Sequence identified from HTFP assay screening) [JPT73]”, in data set [4], the “inhibition of MIA-activity (neutralization of the MIA effect on invasion)” value is recorded as “inhibit MIA-activity”. For the same molecule, in [1], the “induction of Aggrecan during differentiation” value is given as “inhibit the induction”, the “induction of Sox9 during differentiation” value is given as “inhibit the induction” and the “induction of collagen type II during differentiation” value was “inhibit the induction”.

Take B1: the binding result in [5] was “binds”.

For the molecule FHWRYPGPGPGQ [peptide JPT4], the binding result in [6] is given as “binds”.

Consider FHWRYPLPLPGQHHHHHH [peptide JPT62], for which, in data set [6], the binding result is recorded as “binds”.

Turning to WHWRYP (also called WHWRYP) [peptide JPT26], in data set [6], the binding result is “binds”.

With B2, the binding result in data set [7] was “binds”.

With B3, in [8], the binding result was “no binding”.

Consider B4, for which, in [9], the binding result is “binds”.

For the molecule B5, the binding result in data set [9] is “binds”.

With B6, the binding result in data set [9] is “binds”.

In the case of B7, the binding result in data set [9] is “binds”.

In the case of FHWRYPDPDPGQ [peptide JPT79], the binding result in data set [6] is “binds”.

FHWH (also called FHWH) [peptide JPT55]: in data set [6], the binding result is “binds”.

On to HHHHHHFHWRYPLPLPGQ [peptide JPT61], for which the binding result in data set [6] was “binds”.

The record behind these values is US20130095122A1, “Peptides or Antibodies Which Bind to Melanoma Inhibitory Activity (MIA) Protein” (priority 2010, published 2013).
